Experimental data reported in patent US6380373B1, “Steroid receptor coactivator compositions and methods of use” (Baylor College of Medicine, priority 1995, dated 2002).

T1: hPR (Homo sapiens, UniProt P06401)
T1 construct: expressed in transfected cells; host or cells: HeLa
T1 sequence (P06401 1-933): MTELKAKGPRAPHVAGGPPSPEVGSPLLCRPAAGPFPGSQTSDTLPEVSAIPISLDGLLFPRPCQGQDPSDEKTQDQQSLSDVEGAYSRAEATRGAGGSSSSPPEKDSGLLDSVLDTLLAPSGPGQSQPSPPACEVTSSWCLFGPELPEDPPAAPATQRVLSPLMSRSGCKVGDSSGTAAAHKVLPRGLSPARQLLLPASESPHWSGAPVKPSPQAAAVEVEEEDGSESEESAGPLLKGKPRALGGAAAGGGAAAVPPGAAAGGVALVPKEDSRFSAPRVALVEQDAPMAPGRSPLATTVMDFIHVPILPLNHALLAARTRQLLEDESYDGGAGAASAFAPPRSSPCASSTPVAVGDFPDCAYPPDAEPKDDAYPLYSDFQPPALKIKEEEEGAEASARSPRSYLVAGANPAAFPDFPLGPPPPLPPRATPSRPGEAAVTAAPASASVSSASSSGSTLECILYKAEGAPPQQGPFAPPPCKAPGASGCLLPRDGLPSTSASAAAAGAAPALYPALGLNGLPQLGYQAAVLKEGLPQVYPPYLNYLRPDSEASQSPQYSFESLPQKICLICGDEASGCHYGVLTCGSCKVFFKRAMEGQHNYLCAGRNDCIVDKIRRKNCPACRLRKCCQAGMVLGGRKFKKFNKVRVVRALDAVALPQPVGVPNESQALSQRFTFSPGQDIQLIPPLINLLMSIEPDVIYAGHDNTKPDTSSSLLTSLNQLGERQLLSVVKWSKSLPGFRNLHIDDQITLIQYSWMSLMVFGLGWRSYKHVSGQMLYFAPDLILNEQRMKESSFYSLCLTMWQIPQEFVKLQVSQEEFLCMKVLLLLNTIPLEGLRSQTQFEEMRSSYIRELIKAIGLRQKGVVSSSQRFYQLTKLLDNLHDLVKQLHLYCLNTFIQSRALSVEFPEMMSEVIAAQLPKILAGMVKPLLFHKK

T2: GST-ER (Homo sapiens, UniProt P03372)
T2 construct: GST; made in house
T2 sequence (P03372 1-595): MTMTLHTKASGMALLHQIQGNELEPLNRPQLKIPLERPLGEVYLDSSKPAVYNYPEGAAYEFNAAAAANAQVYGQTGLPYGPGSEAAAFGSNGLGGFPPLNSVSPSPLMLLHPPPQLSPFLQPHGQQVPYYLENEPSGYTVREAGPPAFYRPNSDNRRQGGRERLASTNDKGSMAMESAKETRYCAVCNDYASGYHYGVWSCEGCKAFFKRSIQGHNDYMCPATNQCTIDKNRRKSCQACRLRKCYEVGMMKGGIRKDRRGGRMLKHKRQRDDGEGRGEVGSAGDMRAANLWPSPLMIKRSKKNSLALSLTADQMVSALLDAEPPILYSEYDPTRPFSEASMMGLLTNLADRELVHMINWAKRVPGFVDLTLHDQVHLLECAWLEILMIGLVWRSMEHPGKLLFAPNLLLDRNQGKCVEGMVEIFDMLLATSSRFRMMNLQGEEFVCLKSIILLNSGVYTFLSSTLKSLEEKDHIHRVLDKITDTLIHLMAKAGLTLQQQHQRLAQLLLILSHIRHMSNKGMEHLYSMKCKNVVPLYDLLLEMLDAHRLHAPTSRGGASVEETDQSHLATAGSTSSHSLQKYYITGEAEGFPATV

T3: GST-TR (Homo sapiens, UniProt P10828)
T3 construct: GST; made in house
T3 sequence (P10828 1-461): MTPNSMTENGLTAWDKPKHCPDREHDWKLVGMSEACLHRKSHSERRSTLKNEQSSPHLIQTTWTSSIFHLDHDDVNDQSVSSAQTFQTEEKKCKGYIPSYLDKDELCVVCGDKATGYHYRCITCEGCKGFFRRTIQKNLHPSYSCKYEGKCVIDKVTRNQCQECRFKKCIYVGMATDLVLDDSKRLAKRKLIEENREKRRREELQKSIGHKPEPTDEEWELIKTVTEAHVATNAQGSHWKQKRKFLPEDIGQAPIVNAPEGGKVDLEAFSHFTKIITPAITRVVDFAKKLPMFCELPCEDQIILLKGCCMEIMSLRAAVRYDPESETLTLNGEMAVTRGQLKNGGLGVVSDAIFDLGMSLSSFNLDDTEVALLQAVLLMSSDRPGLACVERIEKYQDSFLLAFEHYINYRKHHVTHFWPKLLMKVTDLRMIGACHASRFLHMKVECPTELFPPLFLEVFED

T4: TR (Homo sapiens, UniProt P10828)
T4 sequence (P10828 1-461): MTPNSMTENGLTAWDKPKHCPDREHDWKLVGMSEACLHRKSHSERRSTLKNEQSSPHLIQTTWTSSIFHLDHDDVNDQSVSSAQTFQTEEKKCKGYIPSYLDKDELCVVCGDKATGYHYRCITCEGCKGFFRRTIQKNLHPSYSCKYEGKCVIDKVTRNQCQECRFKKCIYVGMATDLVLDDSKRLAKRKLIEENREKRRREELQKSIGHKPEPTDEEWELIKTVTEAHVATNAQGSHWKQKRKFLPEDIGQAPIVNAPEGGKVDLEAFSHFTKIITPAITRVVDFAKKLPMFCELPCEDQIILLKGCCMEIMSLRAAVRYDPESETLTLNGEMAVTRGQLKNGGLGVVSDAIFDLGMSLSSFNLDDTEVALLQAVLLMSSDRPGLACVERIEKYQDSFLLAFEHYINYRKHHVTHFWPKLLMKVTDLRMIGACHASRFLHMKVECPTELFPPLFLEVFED


What was measured:
hPR [1] = target: T1, hPR; assay: Transient transfection CAT reporter assay, hPRB with PRE2-TATA-CAT in HeLa cells; format: cell-based; conditions: HeLa cells, PRE2-TATA-CAT, 2×10^−8 M R5020, without SRC-1
Protocol: (§1) Lipofectin (GibcoBRL) was selected for transfection of Hela cells.
To further investigate the role of SRC-1 in receptor transactivation of target gene expression, transient transfection assays were carried out in mammalian cell lines. HeLa cells were cotransfected with mammalian expression vectors for full-length SRC-1 and hPRB together with a plasmid containing two copies of the progesterone-responsive DNA element (PRE) inserted in front of the TATA box of the E1b adenovirus, linked to the chloramphenicol acetyl transferase (CAT) reporter gene, PRE2-TATA-CAT.
Cells were harvested 42 h after transfection and the chloramphenicol acetyl transferase (CAT) activity determined using 8 μg of protein extract.

GST-ER = target: T2, GST-ER; assay: In vitro interaction with baculovirus expressed GST-ER; format: binding
Source text: (§2) Thus, we investigated the effect of SRC-1 expression on the transcriptional activity of other intracellular receptors.

GST-TR = target: T3, GST-TR; assay: In vitro interaction with baculovirus expressed GST-TR; format: binding
Source text: as §2

hPR [2] = target: T1, hPR; assay: Dominant-negative CAT assay PR/PRE2-tk-CAT with SRC-1(0.8); format: cell-based; conditions: Lmtk- cells
Protocol: as §1
(§3) To further elucidate the mechanism of SRC-1 action, the effect of the N-terminal deletion mutant of SRC-1, SRC-1(0.8), on receptor transactivation was examined. The amino acid sequence from 865-1061, which contains the region that binds to the receptor, was cloned in frame to a mammalian expression vector that provided an exogenous AUG codon.
(§4) Lmtk^− cells were transfected with 5 μg of steroid receptors cDNAs expression vectors and their reporters, PR/PRE2-tk-CAT and TR§/DR4-tk-CAT, along with 10 μg of SRC-1(0.8) or empty expression vector and then treated with hormones (2×10^−8 M). The reporter CAT activity was determined using 60 μg of protein extract.

TR = target: T4, TR; assay: Dominant-negative CAT assay TR/DR4-tk-CAT with SRC-1(0.8) in Lmtk- cells; format: cell-based; design: expressed in transfected cells; host or cells: Lmtk- (mouse fibroblast) cells; conditions: 10 μg SRC-1(0.8), hormone 2×10^−8 M
Protocol: as §1, §3, §4

Row | induction of hPR activity (CAT reporter) (hPR [1]) [fold] | interaction with GST-ER in vitro (GST-ER) | interaction with GST-TR in vitro (GST-TR) | effect on hormone induced transcriptional activity of hPR (hPR [2]; 10 μg SRC-1(0.8), hormone 2×10^−8 M) | effect on the hormone-free receptor (hPR [2]; no hormone) | effect on ligand-induced transcriptional activity of TR (TR) | Molecule
1 | ~5 | – | – | – | – | – | CCC(=O)[C@@]1(C)CC[C@H]2[C@@H]3CCC4=CC(=O)CCC4=C3CC[C@@]21C [R5020, reference compound]
2 | – | able to interact | able to interact | efficiently reduced | No major effect | inhibits | SRC-1(0.8): N-terminal truncated form of SRC-1, amino acids 865-1061, containing the receptor-binding region; dominant-negative repressor (protein, UniProt Q15788 865-1061, looked up, fragment) LNRLPELELEAIDNQFGQPGTGDQIPWTNNTVTAINQSKSEDQCISSQLDELLCPPTTVEGRNDEKALLEQLVSFLSGKDETELAELDRALGIDKLVQGGGLDVLSERFPPQQATPPLIMEERPNLYSQPYSSPSPTANLPSPFQGMVRQKPSLGTMPVQVTPPRGAFSPGMGMQPRQTLNRPPAAPNQLRLQLQQR
